For eleven molecules, Expression results are on record in patent US20230226096A1 (Orna Therapeutics, Inc., priority 2020, published 2023).

Sequences and labels used below:
B1: Avisivirus Pf-CHK1 (nucleic acid, listed as Avisivirus sp.)
DNA: CATTCCCCTTTCCCCAGCCATGGGTTAAATGGCCCCTCACCAGGTTCGGTGCTGTCTAGGCTTCCAGTAAAGAAGTCAACCGAGCATTGAACAAAACCTCAGTGGGTATGGTAGTTAACCCCGTCCACTGGACAACTTTGTCCTCTTAAAAGTGGATCAATCCACCCCAACTCCCCCCCTAGCCACCTGAGCCATGGTGGATAGCAGTGACGAAACTAGGGACCCCAATACCTCTAGTGCCAAGAGAATTCCCCCCTCGCGAGAGGTGCTCTTGGGCCCGAAAGGCTAGTTGGCAGGGTGAAGTGAAGGAAGCTGCTAGCGTGGCAACCTTAAGCGTAGCCCGAAGCTGACCTTAGAGGTTAACCCTAGTGGACCACTGGATGAAGCTGTGGAGGTGGTGGATAGGAAAGTTGGCCACTTGTGAGTAGATGCCCAGAAGGCATAAGGCTGATCTGGGGCCAGTGACTATACCGTTCCGGTAAACCTGGTATAAAAACCATGAAAGCAAGTGGGTTTAAAATTTCTTCTAATTCCTTCATTTCAGTAGTGATAACTGGCAGA
B2: Equine hepacivirus (nucleic acid, listed as Hepacivirus sp.)
DNA: ACCTCCGTGCTATGCACGGTGCGTTGTCAGCGTTTTGCGCTTGCATGCGCTACACGCGTCGTCCAACGCGGAGGGATTCTTCCACATTACCATGTGTCACTCCCCCTATGGAGGGTTCCACCCCGCCCACACGGAAATAGGTTAACCATACCTATAGTACGGGTGAGCGGGTCCTCCTAGGGCCCCCCCGGCAGGTCGAGGGAGCTGAAATTCGTGAATCCGTGAGTACACGGAAATCGCGGCTTGAACGTCATACGTGACCTTCGGAGCCGAAATTTGGGCGTGCCCCACGAAGGAAGGCGGGGGCGGTGTTGGGCCGCCGCCCCCTTTATCCCACGGTCTGATAGGATGCTTGCGAGGGCACCTGCCGGTCTCGTAGACCATAGGAC
B3: Hepacivirus I (nucleic acid)
DNA: CAGGGTTTCGACCCTGGCCCGGATACCTATCGCCTTACGCCGAAAGGTAACGAGTAGGAGTCGGGTCCCCAGGCCCTTACCGCCACCAAGCCAGGTGGGGAGGTATGGGAGCCGGGGGGTGCAGCTGGTAGCTCCATGGGGGACGCCCCGTGAGCGGATGCTGCATCGATACCGGGTTAGCTCTCTGGGAGAGCGGCACTTGACACCACGAATCCGGGAACCGGACAATCGCCGGCGTGGGACGCGTTGCCTCCGTGGCCGAGCAATTTGGCATGCCCGTGGTGAAGAGTGATGGTGGGGGGGGGCCCCCCTTCCAGTACCGTACTGCCTGATAGGGTCTTGCCTCAAGCCCAGAGAGTCGAGGCTGAAAACCGCCATC
modifications: Hepacivirus I
B4: Rhimavirus A (nucleic acid)
DNA: CGAATTCCGGACATCTCCTTTCGGGGGCGAGCGTCACCGTGCCCCTCATGGAGGCAACTGTGCCTCTAATCGGTGACCCACTGAGAAAATTTTCTTTCTACGTGGCTAAACAATGCAACTTTATAATAACACAAATTTAATGCTTAATCTTAACACCAAAGATTTGAACATATGTTTGGAAAGTGGCACACTTCAAACATTGCATAGTTGCTAGGGGTGAAGTCCCTTTAAGGGGTTGCAGAGGATCTTTCCTCTTTATGAGCGGCTAGGAGTATCTTCTTGATATTATGTGGTCGTGCAACTCACTTCCCAGATGTATGACGGTGTACTAAGCGATTGGAACTAGTCATAACCTCTTTGAATTTTGGTATTGCGAGTCTAGCAGGGGGATATTTACCGCTAAAGGGTGACACACTCGTGAGGGTGGCCTTTGGTGTGTGTATATTTATTCCGCCCATCTTGCATGGGGTGCTAAAATTCTAATGCTGTGAAATAACCATTTTCTGAATACATTCTCTACATTTGGAGTCAAATATGAGGAATGCCACTCAGGTACCCTTGACATGATCTTGGATCTGAGAGTGGGCTAATTATCTAATTATTTGGCGACTTTCTAAAATCTTCTGTTTTTAGTGGTGACAATTTATGGTTATAAA
B5: Hepacivirus J (nucleic acid)
DNA: GCCGCTCCCGAAAGGGAGTCCGGCGCGTCATCCCACTCCGAGGAGTGGGGTGGCGTCCCCGTGTGCCGGGGAACCATGAAGCCTAAGGGCATCCACATTTTAGAATGAACTTGAAGCTTCGTTTCGCTGGCCGGAAAGTCCTGGGTTCCCATGGCCAGGGTTCCGCAGGTGGGTAAATCCCGGTGGGGTTCCATCCAGGATATACGGCAGGCGGGCGTAGTCCGGCGGTTCGGACGACGTGTGGGTCGCCTACGGTGGATTGTTCACAGGATGGGCACTCCGGTGTGAATAGGCCCCGTCAGGGTGCGCTGACGTTAAACTCAGGCCTTGCCTGGTGTTCGGGGAGGATTGCAGGGCCACGCCGCCTCTAAGGGCCGTATGGCACAGTACTTCTTCGGGCGGGTTGTCAAGGCCCTCCAACGCGACACCAGTGCCTCGGCAGGCATGGGGCCACCCAGCTCGGCGTCCCGCACACAGACGGCGTAGGGGAAAATCAGCAATGTGACCCCGGGTGGCATTTTCCTTCTCTCTACTTCCATGCATGATCAACCGCAATC
modifications: Hepacivirus J
B6: Antarctic penguin virus A (nucleic acid)
DNA: CTAGGAGACTACGCAGTGGGATAAGATGACTATGATGTCGTACGGGCAGAAGCCAGTACAGTCGAAGTCGAGACCGACGTCGAGGATTTGACTCTGCCTGACCTAGTGCCATC
modifications: chemistry not fully specified; the letters are possibly those of the target site
B7: Hepacivirus B (nucleic acid)
DNA: ACCACAAACACTCCAGTTTGTTACACTCCGCTAGGAATGCTCCTGGAGCACCCCCCCTAGCAGGGCGTGGGGGATTTCCCCTGCCCGTCTGCAGAAGGGTGGAGCCAACCACCTTAGTATGTAGGCGGCGGGACTCATGACGCTCGCGTGATGACAAGCGCCAAGCTTGACTTGGATGGCCCTGATGGGCGTTCATGGGTTCGGTGGTGGTGGCGCTTTAGGCAGCCTCCACGCCCACCACCTCCCAGATAGAGCGGCGGCACTGTAGGGAAGACCGGGGACCGGTCACTACCAAGGACGCAGACCTCTTTTTGAGTATCACGCCTCCGGAAGTAGTTGGGCAAGCCCACCTATATGTGTTGGGATGGTTGGGGTTAGCCATCCATACCGTACTGCCTGATAGGGTCCTTGCGAGGGGATCTGGGAGTCTCGTAGACCGTAGCAC
modifications: Hepacivirus B
B8: Rosavirus 2 GA7403 (nucleic acid, listed as Rosavirus sp.)
DNA: CCAGGCATGGCGTTAAACATGCATTCCCTTCCCCTAGTAACCTCCCTTCGCCCCTTCCCCACGTTGTACCCCCTCCGAGATGGCTGCTAAGGCGCTTGCTGCTACAGCAGTCTCGTGTTTCGGGTGTTATAAGTGCTTTCTTTTCCACTCCACTCCCTGCCTATGGGGAGCGGAACGGCCTTGTCTCGGTCGTTGCTTCTTGCAGATCTTCACCCCTCCAGGCTTTCTGGACTCGCCAGGGGTGGAGTAGTAGGCGCACTGTCTAAGTGAAGGTAGCAGTGTTGTTGGCGAAGAGTTGTGGACCTACTTTGAGTTTGTAGCGATCATCCAGAGCTAGCGGATCTCCCCACGCGGTAACGCGTGCCTCTAGGCCCAAAAGGCACGGTGTTCACAGCACCCTTTGGATGGCGGGGGTGCCCCCCTCCGCACTTAAAGTAGAAAAACAGCTTAGTAGTCAAATAACATGGCTTTCCTCAAGCATTCAGTGCTACATGGGACTGAAGGATGCCCAGAAGGTACCCGCAGGCAACGATAAGCTCACTGTGGATCTGATCTGGGGCCCTGGGCCAGGTGCTATACACCTGGTTAAAACCAAATCTGGTAGTCAGGGTTAAAAAACGTCTAAGTCCCACCCCCCCGGGGACGGGGGGTTCCCTTAAACCCTCAACTGACACC
B9: Icavirus (nucleic acid)
DNA: CGAAGTTTAAGCTAAGCACCCTCGGGCGTTCCCGGATTATGTGATCACATCAATTTGATGGCTGGTCACCACGCAACGCCTGGAGAGATACTCTTACTTTTCTCTTAAGATCCCCGGTCATTTGACGCTTGTAGGATGATAGGGTTATTTTCCACTATAAATACTTTCATACTCTTGGATGTTCTATATCCAAGACGGGAGGACCTACCCCGTACCCCTTAGAGGTGAGATGCCAAGAACAGGCCCTTTCTGTTCTCTCGACAATGGCATCATAGGCAACAAGCATCACACCAAGATTGCTAAGTTTTGTTAAGAGTTCTTCAAGCTATAGGGTGGCTGTAGCGACCTTCTGATGCCTGCGGATTTCCCCACGGAGCGATCCGTGCCACAGGGGCCAAAAGCCACGGCTAACGCCCATCAGGAGCGGCACTTACCCCGTGCCCCACCCTTGAAACTTGAATGTTCACACTGGCTTCTCTCGGCTTTCTGAACTGTCTGCTTGTTGGGGCCCCGAAGGATGCCCTGGAGGTACCCCATTTTATGGGATCTGACCAGGGGACACCTCAGCTCTCTAAGTTGCTGGTGTTTAAAAAACGTCTAAGGGCCCCCACCCCTTAGGTGGAGGGATCCACCTTTCCTTTATTTTTTAAAACTCTTTTATGGTCACAATTGTTT
B10: Basella alba endornavirus (nucleic acid)
DNA: GGAATATGGCTAATCGGCTTATTCTAATCAAACGCAAAAGACTTATGACACAGACCGGACCTGAACGAGGTGATAAAACACCTCGTTCAGGTTCAAAACGTAGAAGATTCATTCCTCCGATTAGAAATACAACTACGTCTAAGCACGATAGAGATGGTATCAAGATCGGTTTTAGACCACGAGAAAATCGGCAAATGAAAGTACAAGTTGGGTGGTTTAAATTACCAAGAACAGTAACATTCAAGAACAACGGCAACCCGTTTGTTACCTCATTTCGTAAATTGTTTAGAAGTAACAAAGATAAATTATTTAATGGTGGGAAGAACCTAAGTACAGTACCAGCCAGAAGTAGTGAAATGACAGAAATGTTTATGTTCATGTCCACGCTAGAGGGCCAATTGTCAATCCAAGATCGAGATCCAAAAATAATCAATAAGTCTATATACATGATAGAGGTA
B11: Bat Hp-betacoronavirus (nucleic acid)
DNA: TTAAGCTTCGGCTTGTTGCATAGGACCGGAAAGGTACTATCTACCCTAACTCTTGTAGTTAGACTCTCTAAACGAACTTTAAAACTGGTTGTGTCCTTCAGTAGTCTGTATGGCCATTGGAGGCACACCGGTAATTATCAAATACTAAGAAGATTCATAGTACATCCTTGTCTAGCTTTTGGTTGGCAGTGAGCCTACGGTTTCGTCCGTGTCGCTCACAATTATCCACACAGTAGGTTTCGTCCGCTGTGGTTGAGTTGCTAGTCCGTTGCTGTTTCGTCAGCCATCTACAACTCGACACC
modifications: Bat Hp-betacoronavirus

The test system of the data set is HEK293 cells. The format is cell-based, human. The note with it: luminescence from secreted Gluc in supernatant 24 hours after transfection of HEK293 cells; circular RNA encoding Gluc with the named IRES (UTR truncated to 675 nt).
B1 yielded an Expression of 1.19E+05.

Consider B2, for which the Expression was 8.40E+04.

The molecule B3 gave an Expression of 7.50E+04.

B4 showed an Expression of 8.42E+05.

For B5, the Expression came to 7.65E+04.

Regarding B6, the Expression amounted to 8.42E+04.

B7 yielded an Expression of 8.84E+04.

B8 registered an Expression of 5.05E+06.

Turning to B9, the Expression is 4.41E+06.

For the molecule B10, the Expression was 7.65E+04.

In the case of B11, the Expression turned out to be 8.47E+04.
